We go through one substance from article PMC5384396.

Assay [1] deals with cynomolgus monkey (cyno) GITR (cynomolgus monkey).
The target is the same in assay [2]. This is another data set of the same source.

MEDI1873 (Fc fusion) yielded a Kd in assay [1] of 107 nM. This substance also displayed a Jurkat NFκB reporter gene assay with cyno GITR-transfected cells, EC50 in assay [2] of 0.422 nM.

Usually Kd stands for the equilibrium constant for the complex coming apart.
